Assay results from patent publication US20240269292A1.
Non-standard residues stand in square brackets, D forms with d. No end group written: not given here. *: point of attachment. Dmt = Cc1cc(O)cc(C)c1C[C@H](N)C(=O)O; stearyl ester = CCCCCCCCCCCCCCCCCCO*

How the values were obtained:
[1] = assay type: physicochemical; conditions: EY005-stearyl solubilized in methyl laurate, incubated 1 hour, HPLC
Procedure: Kd values were calculated as [unbound]/[bound] fraction prodrug under each condition.

[2] = target: Albumin (Homo sapiens, UniProt P02768); experiment: Fluorescence microscopy of complexation of FITC-labeled drug with particulates; assay type: binding
From the text: (§1) As described herein, formation of MTT-prodrug-complex particulates can be verified experimentally by direct visualization. For example, the MTT-prodrug EY005-stearyl was fluorescently labeled with fluorescein isothiocyanate (FITC) and admixed with different complexation agents. The resultant mixture was then visualized under direct fluorescence microscopy. […] In contrast, FITC-labeled EY005-stearyl was not observed to form drug-complex particulates with silica microbeads (see FIG. 24A-24D), indicating the process of complexation and drug-complex particulate formation is highly dependent on favorable noncovalent interaction between drug and complexation agent.
(§2) Further, this noncovalent interaction is specifically mediated by the conjugation moiety of the MTT-prodrug. FITC-labeled EY005-stearyl that had been admixed with complexation agent was treated with an aqueous solution of carboxyesterase (0.1 μg/mL) to hydrolyze the ester bond of the prodrug, releasing the fluorescent peptide.
as §1, with “(FIG. 24C),” for “(see FIG. 24A-24D),”

[3] = as above; assay type: physicochemical; conditions: for Fluorescence after carboxyesterase: carboxyesterase 0.1 μg/mL
From the text: as §1, §2
as §1, with “(FIG. 24C),” for “(see FIG. 24A-24D),”

[4] = test system: T1, EY005-stearyl prodrug (H-d-Arg-DMT-Lys-Phe(-O)-stearyl)
T1 sequence: RYKF

[5] = target: Albumin; experiment: pull-down by centrifugation in methyl laurate after 1 hour incubation, HPLC quantification
[6] = target: Albumin; experiment: pull-down by centrifugation in methyl laurate after 1 hour incubation, HPLC quantification; unitless ratio

For `OC[C@H]1O[C@@H]2O[C@H]3[C@H](O)[C@@H](O)[C@@H](O[C@H]4[C@H](O)[C@@H](O)[C@@H](O[C@H]5[C@H](O)[C@@H](O)[C@@H](O[C@H]6[C@H](O)[C@@H](O)[C@@H](O[C@H]7[C@H](O)[C@@H](O)[C@@H](O[C@H]8[C@H](O)[C@@H](O)[C@@H](O[C@H]9[C@H](O)[C@@H](O)[C@@H](O[C@H]1[C@H](O)[C@H]2O)O[C@@H]9CO)O[C@@H]8CO)O[C@@H]7CO)O[C@@H]6CO)O[C@@H]5CO)O[C@@H]4CO)O[C@@H]3CO` [Cyclodextrin gamma], the “μg EY005-stearyl complexed per mg complexation agent” value [1] was 2.3 μg per mg complexation agent.

With “FITC-labeled EY005 native peptide: EY005 native peptide labeled with fluorescein isothiocyanate ([dR][Dmt]KF-OH; also: FITC label, site not given here)” the Complexation by fluorescence [2] was “minimal complexation” and the Complexation by fluorescence ([3]; silica microbeads) was “interacted with silica microbeads creating fluorescent round figures”.

With “FITC-labeled EY005-stearyl prodrug: MTT-prodrug EY005-stearyl fluorescently labeled with fluorescein isothiocyanate (FITC) ([dR][Dmt]KF-{stearyl ester}; also: FITC label, site not given here)” the Complexation by fluorescence [2] was “bright fluorescence”, the Fluorescence after carboxyesterase ([2]; carboxyesterase 0.1 μg/mL) was “reduced levels of fluorescence” and the Fluorescence after carboxyesterase ([3]; cyclodextrin) was “reduced levels of fluorescence”. The Fluorescence after carboxyesterase ([3]; lecithin) was “reduced levels of fluorescence”, the Fluorescence after carboxyesterase ([3]; magnesium stearate) was “reduced levels of fluorescence” and the Complexation by fluorescence ([3]; silica microbeads) was “no evidence of complexation”. For the same molecule, the Fluorescence after carboxyesterase ([3]; silica microbeads) was “did not alter extremely low levels of fluorescence”.

For carboxyesterase, the “cleavage of the prodrug ester bond (HPLC)” value [4] was “Incubation of EY005-stearyl with carboxyesterase produced rapid cleavage of the prodrug ester bond, releasing EY005”.

H-[dR][Dmt]KF-{stearyl ester} (also: DMT isomer not given here) [EY005-stearyl prodrug (H-d-Arg-DMT-Lys-Phe(-O)-stearyl)] showed a µg EY005-stearyl complexed per mg complexation agent (binding capacity) (µg per mg complexation agent) [5] of 4.5 and a Calculated Kd ([unbound]/[bound] fraction of prodrug) [6] of 1.34.
